Where a chain is given by its changes, count along the chain named. Values belong to the molecule of their own block, whether it stands above or below them. No end group written: not given here.
Assays:
[1] = biological target: human AURKA_(123–403), kinase domain of Aurora kinase A, wild type (human) (UniProt O14965); test: ITC
AURKA_(123–403) W128A = biological target: T1, AURKA_(123–403) W128A (human, UniProt O14965 123-403, W128A); test: fluorescence polarisation
T1 sequence: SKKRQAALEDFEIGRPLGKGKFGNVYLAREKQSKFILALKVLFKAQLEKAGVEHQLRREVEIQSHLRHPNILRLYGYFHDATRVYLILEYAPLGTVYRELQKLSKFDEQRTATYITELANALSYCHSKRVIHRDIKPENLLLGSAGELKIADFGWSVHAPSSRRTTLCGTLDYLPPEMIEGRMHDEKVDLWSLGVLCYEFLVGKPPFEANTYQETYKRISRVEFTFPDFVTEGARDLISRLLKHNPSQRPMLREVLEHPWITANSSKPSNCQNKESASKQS

[2] = biological target: T2, AURKA region (AURKA_(123–403)C290,393A) of CEP192-AURKA_(chimera) (human, UniProt O14965 123-403, C290,393A | C290,393A); test: crystal structure
T2 sequence: T1 sequence with A6W, C168A, C271A

SEC-MALS = biological target: the molecule itself; test: SEC-MALS

binding result (AURKA_(123–403) W128A): binds
Molecule: EDFRSGSEAFDLIAQDEEEFNKEHQFIQEEN (also: FITC label, position not given here) [FITC-labeled CEP192_(506–536) peptide]

binding result [2]: binds
Molecule: EDFRSGSEAFDLIAQDEEEFNK (domain or fragment) [CEP192 region (residues 506–527) of CEP192-AURKA_(chimera)]

The remaining lines, values behind:

Molecule: N-terminal MBP-tagged AURKA-BD of human CEP192 residues 440 to 631 (from UniProt Q8TEP8 440-631) (domain or fragment)
Kd [1]: 1.2 µM | stoichiometry N [1]: 1

B1: CEP192-AURKA_(chimera): CEP192_(506–527) fused to AURKA_(123–403)C290,393A without linker residues (other)
chain: EDFRSGSEAFDLIAQDEEEFNKSKKRQWALEDFEIGRPLGKGKFGNVYLAREKQSKFILALKVLFKAQLEKAGVEHQLRREVEIQSHLRHPNILRLYGYFHDATRVYLILEYAPLGTVYRELQKLSKFDEQRTATYITELANALSYCHSKRVIHRDIKPENLLLGSAGELKIADFGWSVHAPSSRRTTLAGTLDYLPPEMIEGRMHDEKVDLWSLGVLCYEFLVGKPPFEANTYQETYKRISRVEFTFPDFVTEGARDLISRLLKHNPSQRPMLREVLEHPWITANSSKPSNAQNKESASKQS
stoichiometry N (SEC-MALS): 3
